Reference: paper PMC13315578
Changes are numbered by the printed parent chain.

Columns and labels:
Settings in all cases: protein: recombinant; tags: N-terminal 6xHis-TEV site; tRNA fold, annealed
Min Elp3 E207A = molecular target: T1, Min Elp3 E207A (Methanocaldococcus infernus, UniProt D5VRB9 1-534, E207A); test: EMSA; similar affinity to WT; EMSA: 250 nM tRNA, 0-20 uM Elp3, 100 mM HEPES pH 7.5, 750 mM NaCl, 25 mM DTT, 20 °C 30 min; 5% TBE gel at 4 °C
T1 sequence: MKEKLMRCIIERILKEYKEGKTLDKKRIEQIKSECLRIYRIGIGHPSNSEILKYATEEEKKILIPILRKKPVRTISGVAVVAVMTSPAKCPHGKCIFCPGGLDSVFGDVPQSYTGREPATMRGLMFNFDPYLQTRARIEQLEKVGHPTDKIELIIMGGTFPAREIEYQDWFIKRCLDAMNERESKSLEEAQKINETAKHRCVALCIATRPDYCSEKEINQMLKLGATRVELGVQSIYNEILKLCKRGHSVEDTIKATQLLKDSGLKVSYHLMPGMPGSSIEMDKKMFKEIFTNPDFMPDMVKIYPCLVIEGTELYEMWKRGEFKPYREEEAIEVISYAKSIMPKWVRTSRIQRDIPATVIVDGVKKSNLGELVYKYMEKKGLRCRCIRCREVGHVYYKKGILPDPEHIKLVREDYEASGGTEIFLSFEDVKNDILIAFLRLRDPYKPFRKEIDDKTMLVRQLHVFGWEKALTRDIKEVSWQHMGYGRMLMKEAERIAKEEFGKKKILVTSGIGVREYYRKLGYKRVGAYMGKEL

Min Elp3 K302A = molecular target: T2, Min Elp3 K302A (Methanocaldococcus infernus, UniProt D5VRB9 1-534, K302A); test: as above
T2 sequence: T1 sequence with A207E, K302A

Min Elp3 I154W = molecular target: T3, Min Elp3 I154W (Methanocaldococcus infernus, UniProt D5VRB9 1-534, I154W); test: EMSA; comparable affinity to WT; EMSA: 250 nM tRNA, 0-20 uM Elp3, 100 mM HEPES pH 7.5, 750 mM NaCl, 25 mM DTT, 20 °C 30 min; 5% TBE gel at 4 °C
T3 sequence: T1 sequence with I154W, A207E

Min Elp3 M156W = molecular target: T4, Min Elp3 M156W (Methanocaldococcus infernus, UniProt D5VRB9 1-534, M156W); test: as above
T4 sequence: T1 sequence with M156W, A207E

Min Elp3 Y304A = molecular target: T5, Min Elp3 Y304A (Methanocaldococcus infernus, UniProt D5VRB9 1-534, Y304A); test: EMSA; EMSA: 250 nM tRNA, 0-20 uM Elp3, 100 mM HEPES pH 7.5, 750 mM NaCl, 25 mM DTT, 20 °C 30 min; 5% TBE gel at 4 °C
T5 sequence: T1 sequence with A207E, Y304A

B1: tRNA ArgUCU (structured_RNA)
RNA: GGACCCGUAGCCUAGCCUGGAUAGGGCACCGGCCUUCUAAGCCGGGGGUCGGGGGUUCAAAUCCCCCCGGGUCCGCCA
Does B1 bind (Min Elp3 E207A)?
Result: binds

Does B1 bind (Min Elp3 K302A)?
Result: binds

Does B1 bind (Min Elp3 I154W)?
Result: binds

Does B1 bind (Min Elp3 M156W)?
Result: binds

What about the binding signal (Min Elp3 Y304A) of the same binder?
Its binding signal is ~1.5 fold KD increase vs WT.
